Here are results for four substances from article PMC2647307.

The subject of the series is C.PvuII. Description: competition. The following applies: scale: % loss of shifted WT band at 10-fold excess competitor.
For the substance Sym CAA/CAA 126-mer, the binding signal was 90.
As for Sym CAA/CAT 126-mer, the binding signal is 90.
With Sym CAT/CAA 126-mer, the binding signal turned out to be 30.
For Sym CAT/CAT 126-mer the value was 30.
